Source: patent US20140072613A1, “Compositions and Methods for Treating Cutaneous Scarring” (priority 2012, published 2014)

Tests used:
Experiment in all cases: biochemical
Type in all cases: biochemical
266 human kinases [1] = molecular target: T1, 266 human kinases (Homo sapiens, UniProt O14920); conditions: IKKβ(h); 100 μM
T1 sequence (O14920 1-756): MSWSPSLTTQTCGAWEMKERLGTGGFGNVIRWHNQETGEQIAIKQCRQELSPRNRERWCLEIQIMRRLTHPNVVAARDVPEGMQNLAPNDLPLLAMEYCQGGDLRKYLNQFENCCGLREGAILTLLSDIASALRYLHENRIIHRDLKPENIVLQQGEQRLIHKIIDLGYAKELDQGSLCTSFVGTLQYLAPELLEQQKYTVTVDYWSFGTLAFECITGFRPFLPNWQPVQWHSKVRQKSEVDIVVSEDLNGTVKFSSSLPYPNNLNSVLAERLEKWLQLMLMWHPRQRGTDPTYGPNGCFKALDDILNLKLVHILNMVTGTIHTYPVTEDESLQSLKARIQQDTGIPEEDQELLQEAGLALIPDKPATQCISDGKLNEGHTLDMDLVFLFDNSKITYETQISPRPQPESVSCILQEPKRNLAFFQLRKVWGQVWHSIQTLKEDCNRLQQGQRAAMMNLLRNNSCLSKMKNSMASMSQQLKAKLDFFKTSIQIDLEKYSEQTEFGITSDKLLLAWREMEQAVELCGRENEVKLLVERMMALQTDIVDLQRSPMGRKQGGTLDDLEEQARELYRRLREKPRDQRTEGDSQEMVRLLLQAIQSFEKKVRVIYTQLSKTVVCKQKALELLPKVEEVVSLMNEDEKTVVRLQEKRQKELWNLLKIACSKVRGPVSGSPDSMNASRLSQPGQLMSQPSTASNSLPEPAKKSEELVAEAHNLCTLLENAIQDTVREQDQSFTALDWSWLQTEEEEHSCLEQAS
In short: (§1)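 Inhibition was judged from reduced transfer of labelled phosphate from ATP to a positively charged substrate, which was captured on a negatively charged membrane and quantified by scintillation counting against a 100% activity control.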

266 human kinases [2] = molecular target: 266 human kinases (Homo sapiens, UniProt O15264); conditions: SAPK4(h); 100 μM
In short: as §1

266 human kinases [3] = molecular target: 266 human kinases (Homo sapiens, UniProt P00519, M351T); conditions: Abl(M351T)(h); 100 μM
In short: as §1

266 human kinases [4] = molecular target: T2, 266 human kinases (Homo sapiens, UniProt P29320); conditions: EphA3(h); 100 μM
T2 sequence (P29320 21-983): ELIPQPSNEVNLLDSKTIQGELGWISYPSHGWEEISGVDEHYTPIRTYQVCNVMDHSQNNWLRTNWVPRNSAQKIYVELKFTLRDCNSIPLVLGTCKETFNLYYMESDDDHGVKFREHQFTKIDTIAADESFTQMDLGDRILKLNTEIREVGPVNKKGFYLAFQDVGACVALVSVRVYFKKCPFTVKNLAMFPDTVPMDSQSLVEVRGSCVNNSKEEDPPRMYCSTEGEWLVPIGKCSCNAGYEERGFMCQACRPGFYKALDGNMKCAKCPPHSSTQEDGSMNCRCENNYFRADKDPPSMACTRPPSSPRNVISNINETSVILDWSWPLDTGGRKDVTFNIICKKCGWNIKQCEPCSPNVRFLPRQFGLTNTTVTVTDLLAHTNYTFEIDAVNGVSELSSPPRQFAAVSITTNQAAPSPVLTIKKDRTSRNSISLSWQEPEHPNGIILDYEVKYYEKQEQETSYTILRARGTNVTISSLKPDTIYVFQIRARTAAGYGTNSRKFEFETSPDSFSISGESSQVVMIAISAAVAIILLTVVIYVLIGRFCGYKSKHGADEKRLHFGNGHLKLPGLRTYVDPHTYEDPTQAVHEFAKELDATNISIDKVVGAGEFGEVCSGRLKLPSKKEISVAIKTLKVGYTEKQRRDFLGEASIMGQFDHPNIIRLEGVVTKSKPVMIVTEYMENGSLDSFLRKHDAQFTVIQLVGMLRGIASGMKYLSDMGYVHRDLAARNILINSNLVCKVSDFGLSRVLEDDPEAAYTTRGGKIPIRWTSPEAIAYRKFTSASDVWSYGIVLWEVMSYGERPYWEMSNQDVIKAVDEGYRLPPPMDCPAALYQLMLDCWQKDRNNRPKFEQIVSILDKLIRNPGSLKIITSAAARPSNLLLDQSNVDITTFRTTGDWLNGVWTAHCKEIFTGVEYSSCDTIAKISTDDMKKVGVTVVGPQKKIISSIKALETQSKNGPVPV
In short: as §1

266 human kinases [5] = molecular target: 266 human kinases (Homo sapiens, UniProt Q00526); conditions: CDK3/cyclinE(h); 100 μM
In short: as §1

266 human kinases [6] = molecular target: 266 human kinases (Homo sapiens, UniProt Q5VT25); conditions: MRCKα(h); 100 μM
In short: as §1

266 human kinases [7] = molecular target: 266 human kinases (Homo sapiens, UniProt Q86Y07); conditions: VRK2(h); 100 μM
In short: as §1

266 human kinases [8] = molecular target: 266 human kinases (Homo sapiens, UniProt Q9H2X6); conditions: HIPK2(h); 100 μM
In short: as §1

266 human kinases [9] = molecular target: T3, 266 human kinases (Homo sapiens, UniProt Q9HBY8); conditions: SGK2(h); 100 μM
T3 sequence (Q9HBY8 whole entry, looked up): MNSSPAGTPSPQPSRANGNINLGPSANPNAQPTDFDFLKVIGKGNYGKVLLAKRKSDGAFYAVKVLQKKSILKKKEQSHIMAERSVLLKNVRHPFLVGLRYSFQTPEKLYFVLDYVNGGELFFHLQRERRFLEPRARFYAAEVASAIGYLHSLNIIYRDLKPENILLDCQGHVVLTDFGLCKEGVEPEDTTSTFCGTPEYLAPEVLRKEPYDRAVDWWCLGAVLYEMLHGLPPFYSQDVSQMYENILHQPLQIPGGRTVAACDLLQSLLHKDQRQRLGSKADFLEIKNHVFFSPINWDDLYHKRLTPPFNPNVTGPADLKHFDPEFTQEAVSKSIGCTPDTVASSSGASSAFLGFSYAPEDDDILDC
In short: as §1

266 human kinases [10] = molecular target: 266 human kinases (Homo sapiens, UniProt P34947); conditions: GRK5(h); 100 μM
In short: as §1

266 human kinases [11] = molecular target: 266 human kinases (Homo sapiens, UniProt Q02763, R849W); conditions: Tie2(R849W)(h); 100 μM
In short: as §1

Sequence of 266 human kinases (Homo sapiens, UniProt Q02763, R849W) (Q02763 23-1124 R849W): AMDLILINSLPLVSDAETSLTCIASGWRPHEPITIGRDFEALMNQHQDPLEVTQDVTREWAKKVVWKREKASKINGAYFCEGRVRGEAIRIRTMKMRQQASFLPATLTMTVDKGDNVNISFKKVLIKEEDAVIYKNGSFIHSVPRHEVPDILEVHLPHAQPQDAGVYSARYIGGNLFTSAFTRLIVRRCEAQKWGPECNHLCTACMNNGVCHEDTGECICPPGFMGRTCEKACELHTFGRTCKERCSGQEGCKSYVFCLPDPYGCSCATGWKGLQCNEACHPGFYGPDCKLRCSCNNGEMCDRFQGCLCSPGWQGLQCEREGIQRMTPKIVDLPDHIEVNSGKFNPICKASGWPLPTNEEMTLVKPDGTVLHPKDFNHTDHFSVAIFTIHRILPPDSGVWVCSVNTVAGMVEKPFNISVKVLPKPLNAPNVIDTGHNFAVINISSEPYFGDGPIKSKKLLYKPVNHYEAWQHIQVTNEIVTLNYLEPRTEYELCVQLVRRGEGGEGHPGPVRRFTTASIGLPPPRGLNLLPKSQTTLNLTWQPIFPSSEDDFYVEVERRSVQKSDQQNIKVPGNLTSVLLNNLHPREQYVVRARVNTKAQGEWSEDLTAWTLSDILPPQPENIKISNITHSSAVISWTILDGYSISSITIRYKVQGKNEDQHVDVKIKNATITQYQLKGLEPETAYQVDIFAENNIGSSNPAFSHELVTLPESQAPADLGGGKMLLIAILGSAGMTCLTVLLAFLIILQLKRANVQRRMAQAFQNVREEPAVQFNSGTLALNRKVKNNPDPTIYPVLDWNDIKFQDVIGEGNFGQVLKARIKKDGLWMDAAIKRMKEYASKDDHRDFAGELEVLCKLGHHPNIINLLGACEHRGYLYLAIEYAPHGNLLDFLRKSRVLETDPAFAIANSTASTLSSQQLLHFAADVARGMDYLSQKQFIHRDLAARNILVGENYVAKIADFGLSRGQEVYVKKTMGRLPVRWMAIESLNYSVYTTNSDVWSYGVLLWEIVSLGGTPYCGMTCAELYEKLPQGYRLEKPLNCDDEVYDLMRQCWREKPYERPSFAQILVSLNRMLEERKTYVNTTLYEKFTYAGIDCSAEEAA
Sequence of 266 human kinases (Homo sapiens, UniProt Q5VT25) (Q5VT25 whole entry): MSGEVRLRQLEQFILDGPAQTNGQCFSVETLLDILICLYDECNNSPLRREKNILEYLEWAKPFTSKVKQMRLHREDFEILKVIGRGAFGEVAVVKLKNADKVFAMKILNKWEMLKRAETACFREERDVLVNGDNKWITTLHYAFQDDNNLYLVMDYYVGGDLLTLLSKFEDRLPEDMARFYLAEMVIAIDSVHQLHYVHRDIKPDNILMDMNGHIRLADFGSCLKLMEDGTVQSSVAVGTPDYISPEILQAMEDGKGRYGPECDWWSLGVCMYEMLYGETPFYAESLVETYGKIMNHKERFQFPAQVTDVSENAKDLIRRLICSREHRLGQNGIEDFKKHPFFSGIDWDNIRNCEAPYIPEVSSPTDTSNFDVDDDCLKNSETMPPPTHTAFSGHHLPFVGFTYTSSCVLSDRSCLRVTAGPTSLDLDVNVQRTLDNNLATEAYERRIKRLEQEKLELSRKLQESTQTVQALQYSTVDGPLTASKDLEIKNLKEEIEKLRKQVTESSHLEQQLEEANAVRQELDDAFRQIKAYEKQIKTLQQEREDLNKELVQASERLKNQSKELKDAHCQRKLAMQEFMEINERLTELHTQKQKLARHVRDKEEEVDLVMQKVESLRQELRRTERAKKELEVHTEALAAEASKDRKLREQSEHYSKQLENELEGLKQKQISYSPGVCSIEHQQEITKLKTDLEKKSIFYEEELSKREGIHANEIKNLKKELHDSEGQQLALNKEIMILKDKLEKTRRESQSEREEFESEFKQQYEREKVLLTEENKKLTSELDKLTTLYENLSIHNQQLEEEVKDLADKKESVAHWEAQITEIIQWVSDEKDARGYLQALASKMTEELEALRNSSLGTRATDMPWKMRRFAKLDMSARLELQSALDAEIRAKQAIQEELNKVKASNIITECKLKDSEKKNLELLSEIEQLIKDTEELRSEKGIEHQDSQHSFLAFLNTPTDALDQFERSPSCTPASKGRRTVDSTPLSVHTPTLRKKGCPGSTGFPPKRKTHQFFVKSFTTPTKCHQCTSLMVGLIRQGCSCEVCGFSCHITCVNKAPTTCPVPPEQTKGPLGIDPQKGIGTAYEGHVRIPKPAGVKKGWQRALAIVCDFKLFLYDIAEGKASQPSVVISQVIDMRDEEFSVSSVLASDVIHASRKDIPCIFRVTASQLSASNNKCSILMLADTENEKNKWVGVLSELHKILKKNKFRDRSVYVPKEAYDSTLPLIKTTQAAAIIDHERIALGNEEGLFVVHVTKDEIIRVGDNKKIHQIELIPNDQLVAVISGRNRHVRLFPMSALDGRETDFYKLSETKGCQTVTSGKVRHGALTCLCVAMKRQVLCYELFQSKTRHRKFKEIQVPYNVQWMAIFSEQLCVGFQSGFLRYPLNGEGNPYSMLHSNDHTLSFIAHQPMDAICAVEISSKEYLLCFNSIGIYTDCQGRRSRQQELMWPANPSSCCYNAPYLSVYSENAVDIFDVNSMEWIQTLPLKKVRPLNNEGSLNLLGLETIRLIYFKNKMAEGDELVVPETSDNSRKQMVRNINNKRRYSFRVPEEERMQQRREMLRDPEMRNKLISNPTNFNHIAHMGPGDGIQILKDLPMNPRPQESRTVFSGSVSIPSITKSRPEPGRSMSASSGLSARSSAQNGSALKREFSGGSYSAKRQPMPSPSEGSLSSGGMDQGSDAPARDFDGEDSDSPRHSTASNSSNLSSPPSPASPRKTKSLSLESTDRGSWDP
Sequence of 266 human kinases (Homo sapiens, UniProt Q9H2X6) (Q9H2X6 whole entry): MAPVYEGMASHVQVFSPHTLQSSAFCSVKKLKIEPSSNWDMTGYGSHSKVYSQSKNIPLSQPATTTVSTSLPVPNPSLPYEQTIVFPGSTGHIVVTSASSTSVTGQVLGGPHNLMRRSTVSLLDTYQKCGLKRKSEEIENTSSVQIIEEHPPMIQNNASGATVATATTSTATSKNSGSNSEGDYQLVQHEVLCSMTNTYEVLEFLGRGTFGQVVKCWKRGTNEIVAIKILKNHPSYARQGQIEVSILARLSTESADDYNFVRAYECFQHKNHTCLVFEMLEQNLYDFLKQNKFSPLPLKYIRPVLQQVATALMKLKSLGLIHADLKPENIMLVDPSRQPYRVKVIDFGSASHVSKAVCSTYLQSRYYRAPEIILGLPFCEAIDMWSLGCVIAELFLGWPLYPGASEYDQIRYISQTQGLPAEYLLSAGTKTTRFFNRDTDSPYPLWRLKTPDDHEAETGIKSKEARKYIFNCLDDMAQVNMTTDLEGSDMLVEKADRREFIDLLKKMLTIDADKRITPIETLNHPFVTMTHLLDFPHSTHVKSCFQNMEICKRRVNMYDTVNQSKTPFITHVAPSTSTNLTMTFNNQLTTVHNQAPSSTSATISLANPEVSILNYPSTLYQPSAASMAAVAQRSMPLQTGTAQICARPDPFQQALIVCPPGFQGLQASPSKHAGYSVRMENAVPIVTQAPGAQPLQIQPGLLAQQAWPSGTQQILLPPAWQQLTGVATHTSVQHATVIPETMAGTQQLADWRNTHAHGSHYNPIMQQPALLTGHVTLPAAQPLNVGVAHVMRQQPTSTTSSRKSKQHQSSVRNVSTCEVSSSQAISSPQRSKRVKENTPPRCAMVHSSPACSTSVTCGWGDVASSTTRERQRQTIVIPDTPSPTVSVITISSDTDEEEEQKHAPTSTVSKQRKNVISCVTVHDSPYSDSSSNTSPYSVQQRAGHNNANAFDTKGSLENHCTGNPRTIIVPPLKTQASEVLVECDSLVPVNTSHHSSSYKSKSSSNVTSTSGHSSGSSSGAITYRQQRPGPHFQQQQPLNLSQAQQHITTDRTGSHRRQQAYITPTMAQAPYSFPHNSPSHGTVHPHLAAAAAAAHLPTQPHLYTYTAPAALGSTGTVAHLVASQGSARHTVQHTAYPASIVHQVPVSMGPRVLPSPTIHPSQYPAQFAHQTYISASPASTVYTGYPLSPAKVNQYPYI
Sequence of 266 human kinases (Homo sapiens, UniProt Q00526) (Q00526 whole entry): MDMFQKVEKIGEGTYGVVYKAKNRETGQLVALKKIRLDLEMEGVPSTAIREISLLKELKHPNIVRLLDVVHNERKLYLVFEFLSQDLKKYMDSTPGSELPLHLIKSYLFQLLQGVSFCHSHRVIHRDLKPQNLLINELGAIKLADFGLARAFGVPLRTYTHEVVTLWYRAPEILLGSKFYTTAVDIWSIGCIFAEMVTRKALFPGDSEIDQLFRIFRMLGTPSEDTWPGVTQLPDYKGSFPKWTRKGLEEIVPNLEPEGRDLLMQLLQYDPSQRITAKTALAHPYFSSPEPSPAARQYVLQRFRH
Sequence of 266 human kinases (Homo sapiens, UniProt Q86Y07) (Q86Y07 whole entry): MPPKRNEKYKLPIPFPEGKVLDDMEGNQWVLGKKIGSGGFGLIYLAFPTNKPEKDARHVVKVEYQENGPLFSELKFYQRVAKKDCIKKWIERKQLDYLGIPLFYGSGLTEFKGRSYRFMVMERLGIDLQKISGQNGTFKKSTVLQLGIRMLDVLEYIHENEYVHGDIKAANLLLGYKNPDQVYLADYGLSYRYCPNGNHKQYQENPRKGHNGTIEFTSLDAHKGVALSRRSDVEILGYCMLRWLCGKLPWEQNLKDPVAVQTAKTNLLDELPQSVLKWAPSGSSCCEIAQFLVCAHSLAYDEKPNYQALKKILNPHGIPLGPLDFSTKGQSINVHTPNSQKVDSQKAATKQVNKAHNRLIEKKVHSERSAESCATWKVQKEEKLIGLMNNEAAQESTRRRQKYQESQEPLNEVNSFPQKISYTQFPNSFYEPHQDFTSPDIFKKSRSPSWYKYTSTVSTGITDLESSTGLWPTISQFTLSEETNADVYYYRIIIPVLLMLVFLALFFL

| Sequence | % activity (266 human kinases [1]) [%] | % activity (266 human kinases [2]) [%] | % activity (266 human kinases [3]) [%] | % activity (266 human kinases [4]) [%] | % activity (266 human kinases [5]) [%] | % activity (266 human kinases [6]) [%] | % activity (266 human kinases [7]) [%] | % activity (266 human kinases [8]) [%] | % activity (266 human kinases [9]) [%] | % activity (266 human kinases [10]) [%] | % activity (266 human kinases [11]) [%] |
| --- | --- | --- | --- | --- | --- | --- | --- | --- | --- | --- | --- |
| HRRIKAWLKKIKALARQLGVAA (mammal) [MMI-0500] | 71 | 48 | 61 | 33 | 8 | 5 | 169 | 38 | −1 |  |  |
| YARAAARQARAKALNRQLGVA (mammal) [MMI-0200] |  |  |  |  |  |  |  |  |  | 135 | 89 |
